Tests used:
GRP receptor [1] = biological target: T1, GRP receptor (Homo sapiens, UniProt P30550); details: cited from earlier work
GRP receptor [2] = biological target: T1, GRP receptor; assay: GRP receptor binding affinity by in vitro receptor autoradiography; design: host or cells: PC3 cells; details: read-out: BINDING IC50 (nM) mean ± SEM
Procedure: The GRP receptor binding affinity of the various compounds was determined by in vitro receptor autoradiography on cryostat sections of either well characterized prostate carcinomas, or on sections from HEK-GRPR or PC3 cell pellets as described previously (Markwalder et al., Can. Res., 1999; 59, 1152-1159; Reubi et al., Eur. J. Nucl. Med., 2000; 27: 273-282; Reubi et al., Clin. Cancer Res. 2002; 8 1139-1146).

GRP receptor [3] = biological target: T1, GRP receptor; assay: Calcium release assay in PC3 cells (Fluo-4NW); assay type: cell-based; design: host or cells: PC3 cells
Procedure: In brief, PC3 cells were seeded (10,000 cells per well) in 96 well plates and cultured for 2 day at 37° C. and 5% CO2 in culture medium. At the day of the experiment, the cells were washed with assay buffer (1×HBSS, 20 mM HEPES) containing 2.5 mM probenecid, and then loaded with 100 μL/well Fluo-4NW dye in assay buffer containing 2.5 mM probenecid for 30 min at 37° C. and 5% CO2 and then for further 30 min at room temperature. […] Intracellular calcium mobilization was recorded in a kinetic for 60 sec at room temperature monitoring fluorescence emission at 520 nm (with λex=485 nm) in the presence of the analogues at the concentrations indicated. […] Baseline (F-baseline) measurements were taken for dye-loaded, untreated cells. […] All experiments were repeated at least three times in triplicate.

GRP receptor [4] = biological target: T1, GRP receptor; assay: Immunofluorescence microscopy based internalization assay with HEK-GRPR cells; assay type: cell-based; design: expressed in transfected cells; host or cells: HEK293; details: for antagonism of bombesin-induced GRP receptor internalization: 10 nmol/L bombesin + 1 μmol/L analogue; for antagonism of bombesin-induced GRP receptor internalization / GRP receptor internalization, given alone: 30 min; for GRP receptor internalization, given alone: 1 μmol/L
Procedure: Briefly, HEK-GRPR cells were grown on poly-D-lysine (20 μg/ml) (Sigma-Aldrich, St. Louis, Mo.) coated 35 mm four-well plates (Cellstar, Greiner Bio-One GmbH, Frickenhausen, Germany). […] The cells were imaged using a Leica DM RB immunofluorescence microscope and an Olympus DP10 camera.
Following incubation with the peptides, the cells were processed for immunocytochemistry as described in above.

PC-3 tumor [5] = test system: PC-3 tumor
PC-3 tumor [6] = assay: Biodistribution in PC-3 tumor bearing nude mice
Procedure: Eleven days after inoculation the mice were injected into the tail vein with 10 pmol of radiolabeled peptides (about 0.18 MBq), diluted in NaCl (0.1% bovine serum albumin, pH 7.4, total injected volume=100 μL).

[7] = 100 μg bombesin or non-radioactive Compound 2

T1 sequence (P30550 whole entry): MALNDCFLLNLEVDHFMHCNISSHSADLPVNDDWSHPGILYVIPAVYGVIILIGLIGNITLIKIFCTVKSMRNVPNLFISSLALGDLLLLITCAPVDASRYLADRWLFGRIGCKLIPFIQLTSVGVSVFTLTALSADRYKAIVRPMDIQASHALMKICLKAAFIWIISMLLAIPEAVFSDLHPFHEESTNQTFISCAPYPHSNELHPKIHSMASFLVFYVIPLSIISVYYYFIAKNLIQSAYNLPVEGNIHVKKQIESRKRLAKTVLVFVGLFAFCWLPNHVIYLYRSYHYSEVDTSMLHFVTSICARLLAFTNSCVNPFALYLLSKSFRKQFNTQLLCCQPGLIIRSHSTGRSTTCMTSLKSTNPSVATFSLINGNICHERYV

^177Lu-DOTA-Gly-4-aminobenzoyl-Gln-Trp-Ala-Val-Gly-His-Leu-Met-NH2 [Compound L70]
agonist/antagonist behaviour (GRP receptor [1]): behaved as an agonist

CC(C)C[C@H](NC(=O)C[C@H](O)[C@H](CC(C)C)NC(=O)[C@H](Cc1c[nH]cn1)NC(=O)CNC(=O)[C@@H](NC(=O)[C@H](C)NC(=O)[C@H](Cc1c[nH]c2ccccc12)NC(=O)[C@H](CCC(N)=O)NC(=O)[C@@H](Cc1ccccc1)NC(=O)c1ccc(NC(=O)CNC(=O)CN2CCN(CC(=O)O)CCN(CC(=O)O)CCN(CC(=O)O)CC2)cc1)C(C)C)C(N)=O [Compound 1, DOTA-Gly-aminobenzoyl-D-Phe-Gln-Trp-Ala-Val-Gly-His-Sta-Leu-NH2]
IC50 (GRP receptor [2]): 30 ± 4.5 nM | effect on calcium release, tested alone (GRP receptor [3]; 1 μmol/L and 10 μmol/L): no effect on calcium release | antagonism of bombesin-induced GRP receptor internalization (GRP receptor [4]): efficiently antagonized | GRP receptor internalization, given alone (GRP receptor [4]): no effect on GRP receptor internalization

[D-Phe^6, Leu-NHEt^13, des-Met^14]-bombesin(6-14) [GRPR-ANTAG, reference compound]
antagonism of bombesin-induced GRP receptor internalization (GRP receptor [4]): efficiently antagonized | GRP receptor internalization, given alone (GRP receptor [4]): no effect on GRP receptor internalization

CC(C)C[C@H](NC(=O)C[C@H](O)[C@H](CC(C)C)NC(=O)[C@H](Cc1c[nH]cn1)NC(=O)CNC(=O)[C@@H](NC(=O)[C@H](C)NC(=O)[C@H](Cc1c[nH]c2ccccc12)NC(=O)[C@H](CCC(N)=O)NC(=O)[C@@H](Cc1ccccc1)NC(=O)c1ccc(NC(=O)CNC(=O)CN2CCN(CC(=O)O)CCN(CC(=O)O)CCN(CC(=O)O)CC2)cc1)C(C)C)C(N)=O [^115In-1]
IC50 (GRP receptor [2]): 16 ± 5.3 nM | Signaling Ca++ mobilization (GRP receptor [3]): ANTAG/no agonist effect | Receptor internalization (GRP receptor [4]; HEK-GRPR cells): Antag/no agonist

^68Ga-DOTA-4-amino-1-carboxymethyl-piperidine-D-Phe-Gln-Trp-Ala-Val-Gly-His-Sta-Leu-NH2 [^68Ga-COMPOUND 2]
blocking of tumor contrast (PC-3 tumor [5]; [7]): effectively blocked | tumor contrast (PC-3 tumor [5]; 1 h after injection of 10 MBq): High tumor-contrast | blocking of tumor contrast (LNCaP tumor; [7]): effectively blocked | tumor contrast (LNCaP tumor; 1 h after injection of 10 MBq): High tumor-contrast

^111In-DOTA-(15-amino-4,7,10,13-tetraoxapentadecanoic acid)-(4-amino-1-carboxy-methyl-piperidine)-D-Phe-Gln-Trp-Ala-Val-Gly-His-Sta-Leu-NH2 [^111In-Compound 5]
biodistribution, adrenal (PC-3 tumor [6]; 1 h): 3.63 ± 0.53 | biodistribution, blood (PC-3 tumor [6]; 1 h): 0.75 ± 0.21 | biodistribution, bone (PC-3 tumor [6]; 1 h): 0.34 ± 0.04 | biodistribution, heart (PC-3 tumor [6]; 1 h): 0.28 ± 0.06 | biodistribution, intestine (PC-3 tumor [6]; 1 h): 2.39 ± 0.42 | biodistribution, kidney (PC-3 tumor [6]; 1 h): 5.08 ± 0.72 | biodistribution, liver (PC-3 tumor [6]; 1 h): 0.40 ± 0.09 | biodistribution, lung (PC-3 tumor [6]; 1 h): 0.62 ± 0.15 | biodistribution, muscle (PC-3 tumor [6]; 1 h): 0.19 ± 0.07 | biodistribution, pancreas (PC-3 tumor [6]; 1 h): 26.83 ± 4.34 | biodistribution, pituitary (PC-3 tumor [6]; 1 h): 9.02 ± 0.99 | biodistribution, spleen (PC-3 tumor [6]; 1 h): 0.80 ± 0.28 | biodistribution, stomach (PC-3 tumor [6]; 1 h): 3.92 ± 1.26 | biodistribution, tumor (PC-3 tumor [6]; 1 h): 10.27 ± 0.36 | tumor:blood (PC-3 tumor [6]; 1 h): 13.73 | tumor:bone (PC-3 tumor [6]; 1 h): 29.93 | tumor:kidney (PC-3 tumor [6]; 1 h): 2.02 | tumor:muscle (PC-3 tumor [6]; 1 h): 53.65 | tumor:pancreas (PC-3 tumor [6]; 1 h): 0.38 | biodistribution, adrenal (PC-3 tumor [6]; 4 h): 0.68 ± 0.31 | biodistribution, blood (PC-3 tumor [6]; 4 h): 0.03 ± 0.01 | biodistribution, bone (PC-3 tumor [6]; 4 h): 0.08 ± 0.02 | biodistribution, heart (PC-3 tumor [6]; 4 h): 0.03 ± 0.01 | biodistribution, intestine (PC-3 tumor [6]; 4 h): 0.17 ± 0.10 | biodistribution, kidney (PC-3 tumor [6]; 4 h): 2.04 ± 0.15 | biodistribution, liver (PC-3 tumor [6]; 4 h): 0.15 ± 0.05 | biodistribution, lung (PC-3 tumor [6]; 4 h): 0.15 ± 0.19 | biodistribution, muscle (PC-3 tumor [6]; 4 h): 0.02 ± 0.00 | biodistribution, pancreas (PC-3 tumor [6]; 4 h): 1.36 ± 0.81 | biodistribution, pituitary (PC-3 tumor [6]; 4 h): 0.38 ± 0.16 | biodistribution, spleen (PC-3 tumor [6]; 4 h): 0.09 ± 0.03 | biodistribution, stomach (PC-3 tumor [6]; 4 h): 0.87 ± 0.58 | biodistribution, tumor (PC-3 tumor [6]; 4 h): 9.35 ± 0.73 | tumor:blood (PC-3 tumor [6]; 4 h): 319.66 | tumor:bone (PC-3 tumor [6]; 4 h): 124.55 | tumor:kidney (PC-3 tumor [6]; 4 h): 4.59 | tumor:muscle (PC-3 tumor [6]; 4 h): 475.17 | tumor:pancreas (PC-3 tumor [6]; 4 h): 6.90 | biodistribution, adrenal (PC-3 tumor [6]; 4 h blocking, 2000 fold): 0.07 ± 0.02 | biodistribution, blood (PC-3 tumor [6]; 4 h blocking, 2000 fold): 0.02 ± 0.00 | biodistribution, bone (PC-3 tumor [6]; 4 h blocking, 2000 fold): 0.03 ± 0.03 | biodistribution, heart (PC-3 tumor [6]; 4 h blocking, 2000 fold): 0.02 ± 0.00 | biodistribution, intestine (PC-3 tumor [6]; 4 h blocking, 2000 fold): 0.03 ± 0.01 | biodistribution, kidney (PC-3 tumor [6]; 4 h blocking, 2000 fold): 1.76 ± 0.36 | biodistribution, liver (PC-3 tumor [6]; 4 h blocking, 2000 fold): 0.14 ± 0.01 | biodistribution, lung (PC-3 tumor [6]; 4 h blocking, 2000 fold): 0.05 ± 0.01 | biodistribution, muscle (PC-3 tumor [6]; 4 h blocking, 2000 fold): 0.01 ± 0.00 | biodistribution, pancreas (PC-3 tumor [6]; 4 h blocking, 2000 fold): 0.06 ± 0.02 | biodistribution, pituitary (PC-3 tumor [6]; 4 h blocking, 2000 fold): 0.23 ± 0.14 | biodistribution, spleen (PC-3 tumor [6]; 4 h blocking, 2000 fold): 0.06 ± 0.01 | biodistribution, stomach (PC-3 tumor [6]; 4 h blocking, 2000 fold): 0.06 ± 0.01 | biodistribution, tumor (PC-3 tumor [6]; 4 h blocking, 2000 fold): 0.61 ± 0.07 | biodistribution, adrenal (PC-3 tumor [6]; 24 h): 0.62 ± 0.16 | biodistribution, blood (PC-3 tumor [6]; 24 h): 0.01 ± 0.00 | biodistribution, bone (PC-3 tumor [6]; 24 h): 0.08 ± 0.02 | biodistribution, heart (PC-3 tumor [6]; 24 h): 0.02 ± 0.00 | biodistribution, intestine (PC-3 tumor [6]; 24 h): 0.05 ± 0.02 | biodistribution, kidney (PC-3 tumor [6]; 24 h): 1.37 ± 0.22 | biodistribution, liver (PC-3 tumor [6]; 24 h): 0.11 ± 0.02 | biodistribution, lung (PC-3 tumor [6]; 24 h): 0.51 ± 0.73 | biodistribution, muscle (PC-3 tumor [6]; 24 h): 0.02 ± 0.00 | biodistribution, pancreas (PC-3 tumor [6]; 24 h): 0.33 ± 0.05 | biodistribution, pituitary (PC-3 tumor [6]; 24 h): 0.46 ± 0.52 | biodistribution, spleen (PC-3 tumor [6]; 24 h): 0.07 ± 0.01 | biodistribution, stomach (PC-3 tumor [6]; 24 h): 0.05 ± 0.01 | biodistribution, tumor (PC-3 tumor [6]; 24 h): 6.33 ± 0.76 | tumor:blood (PC-3 tumor [6]; 24 h): 1155.51 | tumor:bone (PC-3 tumor [6]; 24 h): 76.65 | tumor:kidney (PC-3 tumor [6]; 24 h): 4.62 | tumor:muscle (PC-3 tumor [6]; 24 h): 364.92 | tumor:pancreas (PC-3 tumor [6]; 24 h): 19.16

From patent publication US9035023B2, “Bombesin analog peptide antagonist conjugates” (Piramal Imaging, SA, priority 2008, dated 2015)
